In experiment [1] the target is human DLL3 endogenously expressed on SHP77 and NCI-H82 cells (human) (UniProt Q9NYJ7). The experiment is described as follows: FACS SHP77 cells, 0.00128 nM.
For experiment [2] the target is unchanged. The experiment is described as follows: FACS SHP77 cells, 0.0064 nM.
Experiment [3] has as its target monkey DLL3 on CHO K1-cyno DLL3 cells (cynomolgus monkey DLL3 extracellular segment joined to EpCAM transmembrane and intracellular regions) (cynomolgus monkey). Put plainly: FACS, CHO K1-cyno DLL3 cells, 0.0064 nM antibody. (Flow cytometry measures light scatter and fluorescence of single cells or particles in a stream.)
Experiment [4] has the same target. The experiment is described as follows: FACS, CHO K1-cyno DLL3 cells, 0.16 nM antibody.
In experiment [5] the target is human DLL3 endogenously expressed on SHP77 and NCI-H82 cells (human) (UniProt Q9NYJ7). The experiment is described as follows: FACS SHP77 cells, 20 nM.
Experiment [6] shares this target. Put plainly: FACS SHP77 cells, 0.032 nM.
Experiment [7] has as its target monkey DLL3 on CHO K1-cyno DLL3 cells (cynomolgus monkey DLL3 extracellular segment joined to EpCAM transmembrane and intracellular regions) (cynomolgus monkey). The experiment is described as follows: FACS, CHO K1-cyno DLL3 cells, 4 nM antibody.
For experiment [8] the target is unchanged. Put plainly: FACS, CHO K1-cyno DLL3 cells, 20 nM antibody.
Experiment [9] has as its target human DLL3 endogenously expressed on SHP77 and NCI-H82 cells (human) (UniProt Q9NYJ7). The experiment is described as follows: FACS SHP77 cells, 0.8 nM.
The target of experiment [10] is monkey DLL3 on CHO K1-cyno DLL3 cells (cynomolgus monkey DLL3 extracellular segment joined to EpCAM transmembrane and intracellular regions) (cynomolgus monkey). The experiment is described as follows: FACS, CHO K1-cyno DLL3 cells, 0.032 nM antibody.
For experiment [11] the target is unchanged. Put plainly: FACS, CHO K1-cyno DLL3 cells, 0.8 nM antibody.
Experiment [12] has the same target. Put plainly: FACS, CHO K1-cyno DLL3 cells, 0.00128 nM antibody.
The target of experiment [13] is human DLL3 endogenously expressed on SHP77 and NCI-H82 cells (human) (UniProt Q9NYJ7). Put plainly: FACS SHP77 cells, 4 nM.
Experiment [14] concerns the target monkey DLL3 on CHO K1-cyno DLL3 cells (cynomolgus monkey DLL3 extracellular segment joined to EpCAM transmembrane and intracellular regions) (cynomolgus monkey). Put plainly: FACS, CHO K1-cyno DLL3 cells, 100 nM antibody.
Experiment [15] has as its target human DLL3 endogenously expressed on SHP77 and NCI-H82 cells (human) (UniProt Q9NYJ7). The experiment is described as follows: FACS SHP77 cells, 0.16 nM.
Experiment [16] shares this target. Put plainly: FACS SHP77 cells, 100 nM.
Experiment [17] has as its target DLL3 endogenously expressed on NCI-H82 cells (UniProt Q9NYJ7). The experiment is described as follows: FACS on NCI-H82 cells; antibody 0.0064 nM.
Experiment [18] addresses human DLL1 protein (Acro, Cat. No. DL1-H52H8) (human) (UniProt O00548). Put plainly: ELISA, coated hDLL1; maximum over 0.1, 1, 10, 100 nM antibody. (An ELISA detects its analyte on a solid surface through an enzyme-linked reagent.)
The target of experiment [19] is human DLL3 protein expressed on CHO-K1 recombinant cells (human DLL3 extracellular segment fused to EpCAM transmembrane and intracellular regions) (human) (UniProt Q9NYJ7). Put plainly: FACS, CHO-K1 hDLL3 cells, 20 nM antibody.
For experiment [20] the target is unchanged. Put plainly: FACS, CHO-K1 hDLL3 cells, 0.8 nM antibody.
Experiment [21] has as its target human DLL4 protein (Acro, Cat. No. DL4-H5227) (human) (UniProt Q9NR61). The experiment is described as follows: ELISA, coated hDLL4; maximum over 0.1, 1, 10, 100 nM antibody.
In experiment [22] the target is DLL3 endogenously expressed on NCI-H82 cells (UniProt Q9NYJ7). Put plainly: FACS on NCI-H82 cells; antibody 4 nM.
Experiment [23] has the same target. The experiment is described as follows: FACS on NCI-H82 cells; antibody 0.032 nM.
In experiment [24] the target is human DLL3 protein expressed on CHO-K1 recombinant cells (human DLL3 extracellular segment fused to EpCAM transmembrane and intracellular regions) (human) (UniProt Q9NYJ7). Put plainly: FACS, CHO-K1 hDLL3 cells, 0.16 nM antibody.
The target in experiment [25] is DLL3 endogenously expressed on NCI-H82 cells (UniProt Q9NYJ7). The experiment is described as follows: FACS on NCI-H82 cells; antibody 20 nM.
The target in experiment [26] is human DLL3 protein expressed on CHO-K1 recombinant cells (human DLL3 extracellular segment fused to EpCAM transmembrane and intracellular regions) (human) (UniProt Q9NYJ7). The experiment is described as follows: FACS, CHO-K1 hDLL3 cells, 100 nM antibody.
Experiment [27] addresses DLL3 endogenously expressed on NCI-H82 cells (UniProt Q9NYJ7). The experiment is described as follows: FACS on NCI-H82 cells; antibody 0.8 nM.
The target of experiment [28] is human DLL3 protein expressed on CHO-K1 recombinant cells (human DLL3 extracellular segment fused to EpCAM transmembrane and intracellular regions) (human) (UniProt Q9NYJ7). Put plainly: FACS, CHO-K1 hDLL3 cells, 0.032 nM antibody.
The target is the same in experiment [29]. The experiment is described as follows: FACS, CHO-K1 hDLL3 cells, 4 nM antibody.
Experiment [30] deals with DLL3 endogenously expressed on NCI-H82 cells (UniProt Q9NYJ7). Put plainly: FACS on NCI-H82 cells; antibody 0.00128 nM.
For experiment [31], the target named is human delta-like ligand 3 (DLL3) on SHP77 cells (human) (UniProt Q9NYJ7). The experiment is described as follows: FACS on SHP77 cells.
For experiment [32], the target named is human DLL3 protein expressed on CHO-K1 recombinant cells (human DLL3 extracellular segment fused to EpCAM transmembrane and intracellular regions) (human) (UniProt Q9NYJ7). The experiment is described as follows: FACS, CHO-K1 hDLL3 cells, 0.00128 nM antibody.
The target of experiment [33] is human DLL4 protein (human) (UniProt Q9NR61). The experiment is described as follows: ELISA, maximum over 0.1-100 nM.
Experiment [34] concerns the target human DLL1 protein (human) (UniProt O00548). Put plainly: ELISA, maximum over 0.1-100 nM.
In experiment [35] the target is DLL3 endogenously expressed on NCI-H82 cells (UniProt Q9NYJ7). The experiment is described as follows: FACS on NCI-H82 cells; antibody 100 nM.
Experiment [36] shares this target. Put plainly: FACS on NCI-H82 cells; antibody 0.16 nM.
For experiment [37], the target named is human DLL3 protein expressed on CHO-K1 recombinant cells (human DLL3 extracellular segment fused to EpCAM transmembrane and intracellular regions) (human) (UniProt Q9NYJ7). The experiment is described as follows: FACS, CHO-K1 hDLL3 cells, 0.0064 nM antibody.

“And” between values parts separate entries of the source, which are not always exact repeats. Equal values may be shown once.

Chain of human DLL3 protein expressed on CHO-K1 recombinant cells (human DLL3 extracellular segment fused to EpCAM transmembrane and intracellular regions) (human) (Q9NYJ7 other isoform, or with tags, fused parts or gaps limits assumed): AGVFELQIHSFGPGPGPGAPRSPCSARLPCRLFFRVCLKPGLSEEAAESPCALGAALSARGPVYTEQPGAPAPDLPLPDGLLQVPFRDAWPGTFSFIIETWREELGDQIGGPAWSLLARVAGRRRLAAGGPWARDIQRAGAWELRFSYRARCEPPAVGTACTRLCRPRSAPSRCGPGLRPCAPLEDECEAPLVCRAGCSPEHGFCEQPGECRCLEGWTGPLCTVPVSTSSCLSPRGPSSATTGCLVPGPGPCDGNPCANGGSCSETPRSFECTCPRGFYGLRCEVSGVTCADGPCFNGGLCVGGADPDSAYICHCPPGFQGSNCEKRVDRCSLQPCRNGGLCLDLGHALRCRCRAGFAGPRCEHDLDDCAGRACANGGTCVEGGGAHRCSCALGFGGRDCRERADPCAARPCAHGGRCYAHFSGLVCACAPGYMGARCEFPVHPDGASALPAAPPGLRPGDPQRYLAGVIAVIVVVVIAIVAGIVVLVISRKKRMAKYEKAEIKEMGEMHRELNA
Chain of human DLL4 protein (human) (Q9NR61 27-524 limits assumed): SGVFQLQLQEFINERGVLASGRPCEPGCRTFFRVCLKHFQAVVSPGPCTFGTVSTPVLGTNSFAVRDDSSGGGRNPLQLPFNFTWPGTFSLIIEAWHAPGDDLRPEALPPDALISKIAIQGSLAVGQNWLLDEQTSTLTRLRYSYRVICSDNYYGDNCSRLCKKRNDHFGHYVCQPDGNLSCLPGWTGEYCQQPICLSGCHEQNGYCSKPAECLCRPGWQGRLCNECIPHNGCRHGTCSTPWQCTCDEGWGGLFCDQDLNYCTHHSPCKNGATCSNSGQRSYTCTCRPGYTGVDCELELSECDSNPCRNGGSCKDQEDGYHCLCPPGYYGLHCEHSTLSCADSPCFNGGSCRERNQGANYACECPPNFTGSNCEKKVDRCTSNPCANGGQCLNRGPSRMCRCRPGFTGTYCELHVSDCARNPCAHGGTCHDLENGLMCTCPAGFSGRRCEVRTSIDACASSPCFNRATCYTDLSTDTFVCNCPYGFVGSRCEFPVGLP
Chain of DLL3 endogenously expressed on NCI-H82 cells (Q9NYJ7 27-618): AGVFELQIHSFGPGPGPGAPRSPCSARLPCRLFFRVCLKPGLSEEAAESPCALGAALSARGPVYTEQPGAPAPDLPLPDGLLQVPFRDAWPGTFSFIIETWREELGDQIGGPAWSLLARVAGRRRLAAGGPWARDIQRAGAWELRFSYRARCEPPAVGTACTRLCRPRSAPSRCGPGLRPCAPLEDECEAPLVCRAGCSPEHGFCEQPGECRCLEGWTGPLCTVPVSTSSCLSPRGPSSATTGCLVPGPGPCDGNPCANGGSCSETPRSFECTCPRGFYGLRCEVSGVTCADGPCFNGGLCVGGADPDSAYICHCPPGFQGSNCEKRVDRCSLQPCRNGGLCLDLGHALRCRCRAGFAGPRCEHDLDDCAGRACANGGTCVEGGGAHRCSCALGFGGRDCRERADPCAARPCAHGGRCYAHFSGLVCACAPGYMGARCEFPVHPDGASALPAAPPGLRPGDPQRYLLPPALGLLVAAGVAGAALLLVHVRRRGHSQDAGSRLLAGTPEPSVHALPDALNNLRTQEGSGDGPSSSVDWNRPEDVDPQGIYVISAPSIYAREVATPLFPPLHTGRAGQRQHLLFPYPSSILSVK
Chain of human DLL3 endogenously expressed on SHP77 and NCI-H82 cells (human) (Q9NYJ7 27-618): as above
Chain of human delta-like ligand 3 (DLL3) on SHP77 cells (human) (Q9NYJ7 27-618, stated change not applied): as the sequence (Q9NYJ7 27-618) above
Chain of monkey DLL3 on CHO K1-cyno DLL3 cells (cynomolgus monkey DLL3 extracellular segment joined to EpCAM transmembrane and intracellular regions) (cynomolgus monkey) (chain, as listed by the source limits assumed): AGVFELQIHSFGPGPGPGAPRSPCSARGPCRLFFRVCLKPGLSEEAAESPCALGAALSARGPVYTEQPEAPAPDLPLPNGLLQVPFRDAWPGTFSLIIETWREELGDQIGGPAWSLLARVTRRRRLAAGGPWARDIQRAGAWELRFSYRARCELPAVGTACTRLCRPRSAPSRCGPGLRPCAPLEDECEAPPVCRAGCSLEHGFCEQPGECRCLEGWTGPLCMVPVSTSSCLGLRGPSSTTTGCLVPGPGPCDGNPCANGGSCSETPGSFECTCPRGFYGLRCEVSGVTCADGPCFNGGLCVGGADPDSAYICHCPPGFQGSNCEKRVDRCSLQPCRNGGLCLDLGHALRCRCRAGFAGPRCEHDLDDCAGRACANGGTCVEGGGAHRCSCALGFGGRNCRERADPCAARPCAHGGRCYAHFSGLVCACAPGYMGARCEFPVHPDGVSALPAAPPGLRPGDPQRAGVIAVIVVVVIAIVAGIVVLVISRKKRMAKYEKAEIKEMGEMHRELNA
Chain of human DLL1 protein (human) (O00548 18-540 limits assumed): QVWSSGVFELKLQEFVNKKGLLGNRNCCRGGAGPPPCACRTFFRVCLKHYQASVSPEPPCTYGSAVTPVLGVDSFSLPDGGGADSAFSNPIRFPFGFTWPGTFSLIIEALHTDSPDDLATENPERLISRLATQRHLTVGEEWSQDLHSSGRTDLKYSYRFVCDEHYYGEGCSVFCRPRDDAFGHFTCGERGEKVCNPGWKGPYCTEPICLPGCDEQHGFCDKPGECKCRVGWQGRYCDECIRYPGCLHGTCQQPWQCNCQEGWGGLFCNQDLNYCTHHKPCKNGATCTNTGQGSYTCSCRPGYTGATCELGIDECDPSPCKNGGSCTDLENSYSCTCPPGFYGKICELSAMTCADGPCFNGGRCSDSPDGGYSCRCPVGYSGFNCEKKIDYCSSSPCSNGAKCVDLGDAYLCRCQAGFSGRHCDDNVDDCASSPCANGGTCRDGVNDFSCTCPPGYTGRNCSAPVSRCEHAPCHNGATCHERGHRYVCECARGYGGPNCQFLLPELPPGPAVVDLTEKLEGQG
Chain of human DLL4 protein (Acro, Cat. No. DL4-H5227) (human) (Q9NR61 27-524 limits assumed): as the sequence (Q9NR61 27-524 limits assumed) above
Chain of human DLL1 protein (Acro, Cat. No. DL1-H52H8) (human) (O00548 18-540 limits assumed): as the sequence (O00548 18-540 limits assumed) above

B1: mab003 scFv-hFc (Fc fusion, part only; not given: VL-VH linker and human IgG1 Fc, not shown: another chain or arm of the molecule; a dimerising Fc or GST; small tags and cut ends)
scFv (part 1 of 2): DVQITQSPSYLAASPGETITINCRASKSISKYLAWYQEKPGKTNKLLIYSGSTLHSGIPSRFSGSGSGTDFTLTISSLEPEDFAIYYCQQHNEYPLTFGGGTKLELK
scFv (part 2 of 2): QVQLQQSGTELMKPGASVKLSCKATGYTFTGNWIEWVKQRPGHGLEWIGEILPGTGSTQYNEKFKGKATFTADPSSNTAYMQLSSLTTEDSAIYYCARWGSTVVAYDYWGQGTTLTVSS
Take B1: the MFI was found to be 182 MFI in [1]; 197 MFI in experiment [2]; 243 MFI in experiment [3]; 1820 MFI in [4]; 1280 MFI in experiment [5]; 351 MFI in [6]. The MFI was determined as 7470 MFI in experiment [7]; 8420 MFI in [8]; 732 MFI in [9]; 566 MFI in experiment [10]; 5570 MFI in experiment [11]; 163 MFI in experiment [12]. In addition, the MFI in experiment [13] came out at 789 MFI; in [14], 10600 MFI; in experiment [15] it was 566 MFI; in experiment [16], 976 MFI.

B2: BI3 (antibody, human IgG1, kappa, V domains shown)
VH: QVQLVQSGAEVKKPGASVKVSCKASGYTFTSYYVHWVRQAPGQGLEWMVIINPGGGTTSYAQKFLGRVTMTRDTSTNTVYMELKSLRSEDTAVYYCARGEAVTGNYFYYGMDVWGQGTTVTVSS
VL: DIQMTQSPSAMSASVGDRVTITCRASQGISNYLVWFQQKPGKAPKRLIYAVSSLYSGVPSRFSGSGSGTEFTLTISSLQPEDFATYYCLQHDSYPYTFGQGTKLEIKR
With B2, the MFI in experiment [17] was 121; in experiment [19], 13400 MFI; in experiment [20] it was 7770 MFI; in experiment [22] it was 795; in [23] it was 155; in [24], 2660 MFI. Besides, the MFI is 882 in [25]; 13200 MFI in [26]; 518 in experiment [27]; 924 MFI in experiment [28]; 12600 MFI in [29]; 112 in experiment [30]. Besides, the MFI in experiment [32] stood at 310 MFI; in [35], 1010; in [36] it was 256; in [37], 452 MFI. The Emax of OD450 nm binding value is 0.14 OD450 nm in experiment [18]; 0.06 OD450 nm in [21]; 0.05 OD450 and 0.04 OD450 in experiment [33]; 0.05 OD450 and 0.07 OD450 in [34]. In experiment [31], this molecule showed an MFI at 0.00128 nM of 101 MFI. Besides, in [31], the MFI at 0.0064 nM is 105 MFI. The MFI at 0.032 nM in experiment [31] stood at 110 MFI. In addition, the MFI at 0.16 nM in experiment [31] was 148 MFI. Also, the MFI at 0.8 nM in [31] stood at 252 MFI. This molecule also showed an MFI at 4 nM in experiment [31] of 498 MFI. Further, the MFI at 20 nM in experiment [31] is 807 MFI. In experiment [31], this molecule gave an MFI at 100 nM of 967 MFI.

B3: mab010 scFv-hFc (Fc fusion, not shown: small tags and cut ends; a dimerising Fc or GST)
scFv (part 1 of 2): DIQMTQSPASLSVSVGETVTITCRASENINSNLAWYQQKQGKSPQLLVYAATNLADGVPSRFSGSGSGTQFSLKISGLQSEDFGSYYCQHFWGLPWTFGGGTKLEIR
scFv (part 2 of 2): QVQLQQSGAELARPGASMKLSCKASGYTFTSYGISWVKQITGQGLEWIGEIFPRSGNTYDNENFRGKATLTADKSSSTAYLEVRSLTSEDSAVYFCARTTVFAPYYFDYWGQGTTLTVSS
Consider B3, for which the MFI is 113 MFI in experiment [1]; 161 MFI in experiment [2]; 855 MFI in experiment [5]; 278 MFI in [6]; 619 MFI in experiment [9]; 707 MFI in [13]. For the same molecule, the MFI in experiment [15] stood at 523 MFI; in experiment [16], 1140 MFI. Also, the Emax of OD450 nm binding value amounted to 0.06 OD450 in [33] and 1.16 OD450 in experiment [34].
